2 molecules from patent publication US6825005B2, “Methods and reagents to regulate apoptosis” (President and Fellows of Harvard College, priority 2000, dated 2004) can be followed below.

In assay [1] the test system is cytochrome c release from mitochondria. Kind of assay: Cytochrome c release assay, immunoblot of cytoplasmic extracts of U2OS cells treated with TNF. Particulars: inducible U2OS lines, TNF treatment. Type of assay: cell-based, human. As to the method: For cytochrome c release assays, U2OS cells were induced with muristerone for 24 hours and treated with 10 ng/ml TNF plus 30 μg/ml cycloheximide for 4.5 hours. Cells were then trypsinized, resuspended in sucrose buffer, homogenized in a Teflon tissue homogenizer, and centrifuged at 10,000×g for 10 minutes as described above. Postmitochondrial supernatant (100 μg of protein) was then analyzed by Western blot analysis for the presence of cytoplasmic cytochrome c. Cytochrome c levels were quantitated by using NIH IMAGE software.

The next assay relates to U2OS cells. Kind of assay: Apoptosis assay, Hoechst-stained apoptotic nuclei counted in inducible U2OS cells. It is filed as cell-based, human. Particulars: cell line expressing the protein, treated with MMC or TNF-alpha. On the procedure:
Cell Lines and Reagents. U20S Cells were Cultured in DMEM Containing 10% Fetal Calf serum supplemented with 50 units/ml penicillin and 50 μg/ml streptomycin. Inducible hTid-1L, hTid-1S, H121QL, and H121QS were expressed in U20S cells from a plasmid containing a muristerone-inducible promoter (Invitrogen). Inducible cells lines were cultured under constant selection with 50 μg/ml Zeocin (Invitrogen) and 300 μg/ml G418. Gene expression was induced with 1 μM muristerone (Invitrogen) for 24 hours. SAOS-2 cells were cultured in DMEM containing 15% fetal calf serum and 50 units/ml penicillin and 50 μg/ml streptomycin.
Apoptosis Assays. Inducible U2OS Cells were Induced with 1 μM Muristerone for 24 hours, or went uninduced and were treated with either the indicated concentration of mitomycin c (Sigma) for 24 hours or the indicated concentration of TNF plus 30 μg/ml cycloheximide. Cells were fixed by exposure to methanol vapor for 10 minutes followed by immersion in methanol for at least 10 minutes. Cells were stained with 1 μg/ml Hoechst 33258 and 0.1% lowfat milk (Carnation) for 7 minutes and rinsed in water. Apoptotic nuclei were counted by using fluorescence microscopy. For transient-transfection experiments, U2OS cells were transfected by the calcium phosphate technique by using BES-buffered saline. […] Cells expressing green fluorescent protein were counted and scored for apoptotic nuclei.

Another assay deals with T1, mtHsp70 (Homo sapiens, UniProt P38646).
T1 construct: immunoprecipitate endogenous hTid-1L and hTid-1S in complex with mtHsp70 from human U2OS cells; endogenous in cells
Nature of the assay: Coimmunoprecipitation-immunoblot with mtHsp70. Type of assay: binding. Particulars: endogenous proteins, U2OS cells. As to the method:
Immunoprecipitation. One 10-cm Plate of SAOS-2 Cells was Trypsinized, Washed in PBS, and lysed in 1% NP40/150 mM NaCl/50 mM Tris HCl, pH 8.0/1 μg/ml each aprotinin and leupeptin/0.01% PMSF on ice. The sample was split into four fractions and incubated for 1 hour with either anti-hTid-1, anti-mtHsp70, or anti-Hsc70 mAbs. Immune complexes were collected on protein G agarose beads (GIBCO) and washed three times in 0.1% NP40 lysis buffer. Samples were then separated by SDS/PAGE, transferred to poly(vinylidene difluoride) membrane, and probed with either anti-mtHsp70, anti-Hsc70, or anti-hTid-1 mAbs. Proteins were visualized by ECL (Amersham Pharmacia) by using x-ray film.
In general terms: In western blotting, separated proteins are transferred to a membrane and probed.

The test system of another assay is caspase 3. Kind of assay: Pro-caspase 3 cleavage and activation, immunoblot and fluorogenic activity assay, U2OS cells treated with TNF. It is filed as cell-based, human. Particulars: inducible U2OS lines, TNF treatment. On the procedure:
Caspase Activation and Cytochrome c Release Assays. U2OS Cells were Induced for 24 hours with 1 μM muristerone and treated for the indicated time with 10 ng/ml TNF plus 30 μg/ml cycloheximide. Cells were trypsinized, washed in PBS, and resuspended in lysis buffer (1% NP40/50 mM Tris HCl/150 mM NaCl, pH 8.0/1 μg/ml each aprotinin and leupeptin/0.01% PMSF), and protein concentration was analyzed by using the Bradford method (Bio-Rad). Sixty micrograms of total cell lysate was then analyzed by Western blot analysis using mAb specific for pro-caspase 3 and pro-caspase 8.
Caspase activity was measured by using fluorescent caspase 8 and caspase 3 activity assays (CLONTECH). Inducible U20S cells were induced with muristerone for 24 hours and treated with 10 ng/ml TNF plus 30 μg/ml cycloheximide for 4.5 hours. Cells were trypsinized, combined with apoptotic cells in the tissue-culture media, counted, and assayed for caspase activity by the manufacturer's protocol on a fluorescent plate reader (excitiation 380 mn, emission 530 nm). For caspase 8 activity, 1×10^6 cells of each line were used, and for caspase 3 activity, 3.5×10^5 cells of each line were used.

T1 sequence (P38646 47-679): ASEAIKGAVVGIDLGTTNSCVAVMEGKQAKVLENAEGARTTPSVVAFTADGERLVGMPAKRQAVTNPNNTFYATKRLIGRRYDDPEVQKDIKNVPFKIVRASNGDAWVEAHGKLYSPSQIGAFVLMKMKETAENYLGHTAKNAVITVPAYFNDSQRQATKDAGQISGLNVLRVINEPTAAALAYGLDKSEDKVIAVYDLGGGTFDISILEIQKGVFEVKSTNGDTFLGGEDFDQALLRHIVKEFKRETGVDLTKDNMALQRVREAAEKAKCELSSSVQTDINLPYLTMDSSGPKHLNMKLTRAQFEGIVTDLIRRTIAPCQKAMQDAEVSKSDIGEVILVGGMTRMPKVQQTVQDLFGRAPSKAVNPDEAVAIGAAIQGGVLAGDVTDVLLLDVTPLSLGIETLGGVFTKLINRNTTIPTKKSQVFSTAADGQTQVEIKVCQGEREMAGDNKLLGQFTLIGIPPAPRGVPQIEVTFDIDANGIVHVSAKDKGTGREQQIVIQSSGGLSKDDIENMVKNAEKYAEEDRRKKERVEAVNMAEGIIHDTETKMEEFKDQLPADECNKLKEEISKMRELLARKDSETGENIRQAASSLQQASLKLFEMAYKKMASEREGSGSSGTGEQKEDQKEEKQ

B1: hTid-1L: 43 kDa mitochondrial matrix splice variant encoded by human TID1, SEQ ID NO: 8; proapoptotic (protein, listed as Homo sapiens)
chain: MAARCSTRWLLVVVGTPRLPAISGRGARPPREGVVGAWLSRKLSVPAFASSLTSCGPRALLTLRPGVSLTGTKHNPFICTASFHTSAPLAKEDYYQILGVPRNASQKEIKKAYYQLAKKYHPDTNKDDPKAKEKFSQLAEAYEVLSDEVKRKQYDAYGSAGFDPGASGSQHSYWKGGPTVDPEELFRKIFGEFSSSSFGDFQTVFDQPQEYFMELTFNQAAKGVNKEFTVNIMDTCERCNGKGNEPGTKVQHCHYCGGSGMETINTGPFVMRSTCRRCGGRGSIIISPCVVCRGAGQAKQKKRVMIPVPAGVEDGQTVRMPVGKREIFITFRVQKSPVFRRDGADIHSDLFISIAQALLGGTARAQGLYETINVTIPPGTQTDQKIRMGGKGIPRINSYGYGDHYIHIKIRVPKRLTSRQQSLILSYAEDETDVEGTVNGVTLTSSGGSTMDSSAGSKARREAGEDEEGFLSKLKKMFTS
Regarding B1, in assay [1], the “Cytochrome c released from mitochondria relative to control cells” value was “more cytochrome c is released”. Further, the “Levels of apoptosis relative to control cells” value in the assay on U2OS cells was “markedly increased levels of apoptosis”. In addition, the “Interaction with mtHsp70 (coimmunoprecipitation)” value in the assay with mtHsp70 was “interact specifically”. Further, the “Cleavage and activation of pro-caspase 3 relative to control cells” value with caspase 3 is reported as “more efficiently”.

B2: hTid-1S: 40 kDa mitochondrial matrix splice variant encoded by human TID1, SEQ ID NO: 9; antiapoptotic (protein, listed as Homo sapiens)
chain: MAARCSTRWLLVVVGTPRLPAISGRGARPPREGVVGAWLSRKLSVPAFASSLTSCGPRALLTLRPGVSLTGTKHNPFICTASFHTSAPLAKEDYYQILGVPRNASQKEIKKAYYQLAKKYHPDTNKDDPKAKEKFSQLAEAYEVLSDEVKRKQYDAYGSAGFDPGASGSQHSYWKGGPTVDPEELFRKIFGEFSSSSFGDFQTVFDQPQEYFMELTFNQAAKGVNKEFTVNIMDTCERCNGKGNEPGTKVQHCHYCGGSGMETINTGPFVMRSTCRRCGGRGSIIISPCVVCRGAGQAKQKKRVMIPVPAGVEDGQTVRMPVGKREIFITFRVQKSPVFRRDGADIHSDLFISIAQALLGGTARAQGLYETINVTIPPGTQTDQKIRMGGKGIPRINSYGYGDHYIHIKIRVPKRLTSRQQSLILSYAEDETDVEGTVNGVTLTSSGKRSTGN
Regarding B2, in assay [1], the “Cytochrome c released from mitochondria relative to control cells” value is “release less cytochrome c”. In addition, in the assay with U2OS cells, the “Levels of apoptosis relative to control cells” value is on record as “decreased levels of apoptosis”. In addition, the “Interaction with mtHsp70 (coimmunoprecipitation)” value with mtHsp70 was “interact specifically”. In addition, the “Cleavage and activation of pro-caspase 3 relative to control cells” value with caspase 3 was “decreased cleavage and activation”.
